Data on one molecule can be found in article PMC4977486, “A/T Run Geometry of B-form DNA Is Independent of Bound Methyl-CpG Binding Domain, Cytosine Methylation and Flanking Sequence”.

Data set [1] concerns the target MeCP2 MBD wild type (UniProt P51608 78-163). The data set is described as follows: EMSA; 2, 4, 8 uM protein; 1.8 uM DNA; 1.8 uM poly(dG-dC) competitor; reference; EMSA: 100 mM Tris-HCl pH 7.5, 500 mM KCl, 10 mM DTT, 1.8 uM poly(dG-dC), room temperature 30 min; 8% native PAGE in Tris-glycine pH 8.3 at 277 K. Particulars: protein: recombinant; 5' overhang 1 nt on each strand (T and A), 19 bp. For orientation: Mobility shift assays separate free from complexed probe on a gel.

Data set [2] has as its target MeCP2 MBD-TRD wild type (UniProt P51608 78-310). Described as above. Particulars: protein: recombinant; 5' overhang 1 nt on each strand (T and A), 19 bp.

B1: methylated BDNFProIII 20-mer (dsDNA)
DNA 1: TCTGGAACGGAATTCTTCTA
DNA 2: ATAGAAGAATTCCGTTCCAG
modifications: 5-methylcytosine at position 8 of strand 1 and position 13 of strand 2 (C33 in duplex numbering)
With B1, the values for the binding signal in data set [1] and in data set [2] were 100 % of wild-type MBD complex and 100 % of wild-type MBD-TRD complex, respectively.
